A word on the EC50: it is the concentration that produces a half-maximal response. As a reminder, the Kd is a measure of binding affinity in units of concentration. As usually defined, the koff is the first-order rate constant of dissociation. As usually defined, the kon is a measure of how fast the partners come together. As usually defined, the EC50 (read off the curve) is the concentration giving half of the maximal effect.

Assay [1] concerns the target T1, recombinant Human IL-17BR-His extracellular domain (human, UniProt Q9NRM6 18-292).
T1 construct: extracellular domain; also called human IL17BR-his tag protein
T1 sequence (looked up): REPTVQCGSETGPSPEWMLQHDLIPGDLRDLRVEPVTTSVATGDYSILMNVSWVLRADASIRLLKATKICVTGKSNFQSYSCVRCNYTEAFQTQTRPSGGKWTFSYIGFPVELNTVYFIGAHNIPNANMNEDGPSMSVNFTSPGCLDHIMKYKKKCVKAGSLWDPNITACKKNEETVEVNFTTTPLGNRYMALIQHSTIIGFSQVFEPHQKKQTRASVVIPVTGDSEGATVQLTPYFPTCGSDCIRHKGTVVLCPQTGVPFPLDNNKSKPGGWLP
Kind of assay: binding ELISA on Human IL-17BR-His, absorbance 650 nm against antibody conc. (nM).

Assay [2] addresses T1, recombinant Human IL-17BR-His …. Kind of assay: Biacore T200, antibody captured by anti-human Fc, Human IL17BR-His 20-1.25 nM, 1:1 model. The procedure:
A Human Antibody Capture kit was used to coat an anti-human IgG (Fc) antibody (in 10 mM sodium acetate, pH 5.0 immobilisation buffer) onto flow paths 2-4 a CM5 chip. Flow-path 1 was blocked and used as a blank control. This anti-human IgG coated chip was then used to immobilize the humanized antibody variants. A concentration series from 20-1.25 nM of Human IL17BR-His using a 2-fold dilution series was made using HBS-EP⁺ buffer. Purified antibody samples were diluted to 1 μg/ml in HBS-EP⁺ buffer and each injected onto one coated flow-path on the chip at a flow-rate of 10 μl/min for 2 mins in a Biacore T200 (GE Healthcare). Association time was set to 8 mins and Dissociation to 90 mins at a flow-rate of 30 μl/min Kinetics of binding/dissociation were analysed using a 1:1 model in the BIAevaluation software
8. Kinetics of the Binding of Humanized hD9040, hD9041 and hD9042 Antibodies to IL-17BR To further characterize the binding of the lead humanized candidates hD9040, hD9041 and hD9042 antibodies to Human IL-17BR-His, kinetics experiments were performed using the Biacore T200 instrument.
(In general: Surface plasmon resonance follows binding to a sensor surface in real time, without labels.)

Assay [3] deals with T2, human IL17RA-Fc fusion protein (human, UniProt Q96F46 33-320).
T2 construct: Bought; not shown: Fc part of the bought fusion, not described
T2 sequence (looked up): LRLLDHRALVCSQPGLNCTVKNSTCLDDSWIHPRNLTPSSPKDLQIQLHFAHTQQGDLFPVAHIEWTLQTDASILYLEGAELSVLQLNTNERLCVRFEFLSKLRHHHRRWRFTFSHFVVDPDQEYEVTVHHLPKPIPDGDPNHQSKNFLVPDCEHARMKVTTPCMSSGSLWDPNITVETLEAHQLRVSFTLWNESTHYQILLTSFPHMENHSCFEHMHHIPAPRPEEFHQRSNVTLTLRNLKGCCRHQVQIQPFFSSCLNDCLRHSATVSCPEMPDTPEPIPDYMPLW
Kind of assay: ELISA, plate coated with 2 ug/ml human IL17RA-Fc fusion protein, absorbance 450 nm. The procedure:
(§1) ELISA plates were coated overnight at 4° C. with 2 μg/ml human IL17RA-Fc fusion protein(Sino Biological, 10895-H03H), human IL17BR-his tag protein (Sino Biological, 13091-H08H), human IL17RC-histag protein (11747-H08B), human IL17RD-his tag (10507-H08H). The next day, plates were blocked with 1% BSA in PBS, followed by the addition of hD9042. The binding specificity of hD9042 was measured as the absorbance at 450 nm using anti-human IgG F(ab′)2 peroxidase antibody (Jackson ImmunoResearch Inc).
(An ELISA detects its analyte on a solid surface through an enzyme-linked reagent.)

The target in assay [4] is T1, recombinant Human IL-17BR-His …. Kind of assay: ELISA, plate coated with 2 ug/ml human IL17BR-his tag protein, detection with anti-human IgG F(ab')2 peroxidase antibody. The procedure:
as §1

The next assay addresses T3, human IL17RD-his tag (human, UniProt Q8NFM7 17-299, limits assumed).
T3 construct: Bought
T3 sequence (looked up): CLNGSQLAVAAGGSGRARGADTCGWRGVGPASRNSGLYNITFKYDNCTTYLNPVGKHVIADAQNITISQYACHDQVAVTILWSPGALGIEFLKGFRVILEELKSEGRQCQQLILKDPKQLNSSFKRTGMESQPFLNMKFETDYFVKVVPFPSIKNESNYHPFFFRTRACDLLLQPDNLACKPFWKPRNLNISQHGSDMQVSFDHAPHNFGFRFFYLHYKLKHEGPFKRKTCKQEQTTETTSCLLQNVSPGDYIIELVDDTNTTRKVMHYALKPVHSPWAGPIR
Put plainly: ELISA, plate coated with 2 ug/ml human IL17RD-his tag, absorbance 450 nm. The method, then: as §1

For assay [5], the target named is T4, human IL17RC-histag protein (human, UniProt Q8NAC3-2 21-467, limits assumed).
T4 construct: Bought
T4 sequence (looked up): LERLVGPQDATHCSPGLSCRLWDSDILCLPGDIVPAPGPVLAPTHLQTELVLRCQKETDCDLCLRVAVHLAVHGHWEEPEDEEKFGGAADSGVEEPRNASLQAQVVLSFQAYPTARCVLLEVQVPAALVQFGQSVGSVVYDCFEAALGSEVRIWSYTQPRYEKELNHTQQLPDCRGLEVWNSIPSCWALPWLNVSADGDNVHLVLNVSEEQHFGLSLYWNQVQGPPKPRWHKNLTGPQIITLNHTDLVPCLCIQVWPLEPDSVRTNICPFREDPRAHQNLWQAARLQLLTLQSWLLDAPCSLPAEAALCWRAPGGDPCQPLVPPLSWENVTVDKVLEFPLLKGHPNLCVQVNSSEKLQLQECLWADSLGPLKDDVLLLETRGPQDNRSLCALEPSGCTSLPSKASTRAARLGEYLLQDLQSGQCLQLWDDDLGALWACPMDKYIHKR
Kind of assay: ELISA, plate coated with 2 ug/ml human IL17RC-histag protein, absorbance 450 nm. The method, then:
as §1

Assay [6] has as its target T1, recombinant Human IL-17BR-His …. Put plainly: binding ELISA on recombinant Human IL-17BR-His extracellular domain, absorbance 450 nm against antibody conc. (nM).
The target of assay [7] is Cynomolgus monkey IL-17BR-monoFc (cynomolgus monkey, UniProt A0A2K5TUK1 18-292). Kind of assay: binding ELISA on recombinant Cynomolgus monkey IL-17BR-monoFc extracellular domain, absorbance 450 nm against antibody conc. (nM).
Sequence of Cynomolgus monkey IL-17BR-monoFc (A0A2K5TUK1 entry or part of it): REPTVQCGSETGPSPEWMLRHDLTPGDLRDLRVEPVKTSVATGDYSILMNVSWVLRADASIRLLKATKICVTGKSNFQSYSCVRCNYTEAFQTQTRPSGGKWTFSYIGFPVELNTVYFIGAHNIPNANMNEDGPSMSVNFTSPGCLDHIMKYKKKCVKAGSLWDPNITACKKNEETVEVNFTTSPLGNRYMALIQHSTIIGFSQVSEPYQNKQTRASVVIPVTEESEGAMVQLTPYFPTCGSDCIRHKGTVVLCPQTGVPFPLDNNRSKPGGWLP
The target of the next assay is T5, Mouse IL-17BR-(Fc) (mouse, UniProt Q9JIP3 18-286).
T5 construct: extracellular domain; Bought (Sino Biological); not shown: Fc part of the bought fusion (Sino Biological), not described
T5 sequence (looked up): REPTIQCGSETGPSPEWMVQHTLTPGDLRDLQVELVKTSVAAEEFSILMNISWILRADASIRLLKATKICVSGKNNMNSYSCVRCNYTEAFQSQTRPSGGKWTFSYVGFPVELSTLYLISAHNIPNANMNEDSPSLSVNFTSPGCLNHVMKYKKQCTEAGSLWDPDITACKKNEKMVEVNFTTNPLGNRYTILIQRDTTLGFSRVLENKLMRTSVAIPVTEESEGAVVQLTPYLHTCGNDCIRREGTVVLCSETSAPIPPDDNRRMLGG
Put plainly: binding ELISA on recombinant Mouse IL-17BR-(Fc) extracellular domain, absorbance 450 nm against antibody conc. (nM).

B1: humanized antibody hD9040 (antibody, V domains shown)
VH: EVQLVQSGAEVKKPGASVKVSCKTSGYTFISYWMNWVRQAPGQGLEWMGRIDPYDSEIQYNQKFKDRVTLTRDTSISTAYMELSRLRSDDTAVYYCARSGGFDWFAYWGQGTLVTVSS
VL: DIQMTQSPSSLSASVGDRVTITCRASENINSNLAWYQQKPGKAPKLLLYDVTNLADGVPSRFSGSGSGTDYTLTISSLQPEDFATYYCQHFWGPPYTFGGGTKVEIK
notes: Human IgG1/kappa (pHuG1, pHuK vectors)
B1: the concentration for a half-maximal effect (EC50) in assay [1] was determined as 0.474 nM. In assay [2], the Kd was 0.02 nM, the koff is 6.66e-05 s⁻¹ and the on-rate constant (kon) was found to be 3.42e+06 M⁻¹ s⁻¹.

B2: humanized antibody hD9041 (antibody, V domains shown)
VH: EVQLVQSGAEVKKPGASVKVSCKTSGYTFISYWMNWVRQAPGQGLEWMGRIDPYDSEIQYAQKFQGRVTLTRDTSISTAYMELSRLRSDDTAVYYCARSGGFDWFAYWGQGTLVTVSS
VL: DIQMTQSPSSLSASVGDRVTITCRASENINSNLAWYQQKPGKAPKLLLYDVTNLADGVPSRFSGSGSGTDYTLTISSLQPEDFATYYCQHFWGPPYTFGGGTKVEIK
notes: as for B1
On to B2, for which the EC50 in [1] was determined as 0.499 nM. In assay [2], the Kd came to 0.011 nM, the koff stood at 4.44e-05 s⁻¹ and the kon amounted to 3.89e+06 M⁻¹ s⁻¹.

B3: humanized antibody hD9042 (antibody, V domains shown)
VH: QVQLVQSGAEVKKPGASVKVSCKASGYTFISYWMNWVRQAPGQGLEWMGRIDPYDSEIQYNQKFKDRVTMTRDTSISTAYMELSRLRSDDTAVYYCARSGGFDWFAYWGQGTLVTVSS
VL: DIQMTQSPSSLSASVGDRVTITCRASENINSNLAWYQQKPGKAPKLLLYDVTNLADGVPSRFSGSGSGTDYTLTISSLQPEDFATYYCQHFWGPPYTFGGGTKVEIK
notes: Human IgG1/kappa (pHuG1, pHuK vectors); also called lead candidate
Take B3: the binding result in assay [3] is “no binding”. In assay [1], the EC50 was 0.414 nM. In addition, the concentration for a half-maximal effect (EC50 (read off the curve)) in assay [4] is roughly 0.3 nM. For the same molecule, the binding result with human IL17RD-his tag is given as “no binding”. Besides, the binding result in [5] is “no binding”. Also, in assay [2], the Kd worked out at 0.017 nM, the koff turned out to be 8.23e-05 s⁻¹ and the kon was determined as 4.85e+06 M⁻¹ s⁻¹.

B4: chimeric antibody cD9001 (antibody, V domains shown)
VH: QVQLQQPGAELVRPGASVKLSCKTSGYTFISYWMNWVKQGPEQGLEWIGRIDPYDSEIQYNQKFKDKAILTVDKSSSAAYMQLISLTSEDSAVYYCARSGGFDWFAYWGQGTLVTVSA
VL: DIQMTQSPASLSVSVGETVTITCRASENINSNLAWYQQKKGKSPQLLVYDVTNLADGVPSRFSGSGSGTQYSLKINSLQSEDFGSYYCQHFWRPPYTFGGGTNLEIK
notes: Mouse D9.2 variable domains on human IgG1/kappa constant regions; also called chimeric D9.2
Regarding B4, the EC50 in [6] stood at 0.23 nM; in [7], 0.291 nM; with Mouse IL-17BR-(Fc), 0.216 nM. Further, in assay [2], the Kd amounted to 0.017 nM. Besides, the koff in assay [2] amounted to 5e-05 s⁻¹. The kon in [2] was found to be 2.9e+06 M⁻¹ s⁻¹.

Values taken from US20220041740A1 (LIFEARC, published 2022).
